From doi:10.1101/2021.01.07.425699 come the findings set out here.

Where two headings read alike, the source gives them in different places.

The target of data set [1] is T1, AtLFYΔ40 (LEAFY) (Arabidopsis thaliana, UniProt Q00958 41-420, del1-40).
T1 sequence: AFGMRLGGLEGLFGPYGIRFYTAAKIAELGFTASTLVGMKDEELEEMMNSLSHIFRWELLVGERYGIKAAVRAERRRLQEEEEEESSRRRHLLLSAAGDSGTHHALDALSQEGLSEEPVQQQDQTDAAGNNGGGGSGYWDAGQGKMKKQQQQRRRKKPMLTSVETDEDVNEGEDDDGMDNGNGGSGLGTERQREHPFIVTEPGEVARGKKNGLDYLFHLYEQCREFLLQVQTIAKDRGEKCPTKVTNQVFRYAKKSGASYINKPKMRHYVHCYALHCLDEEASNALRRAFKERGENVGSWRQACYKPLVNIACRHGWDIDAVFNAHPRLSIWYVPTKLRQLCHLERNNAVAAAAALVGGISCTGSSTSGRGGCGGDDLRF
In words: EMSA. In general terms: A gel shift assay detects complexes by their altered migration in electrophoresis.

The target in data set [2] is T1, AtLFYΔ40 (LEAFY). The data set can be described thus: EMSA. This is another data set of the same source.

B1: 601 free DNA (dsDNA)
DNA 1: ATCGATGTATATATCTGACACGTGCCTGGAGACTAGGGAGTAATCCCCTTGGCGGTTAAAACGCGGGGGACAGCGCGTACGTGCGTTTAAGCGGTGCTAGAGCTGTCTACGACCAATTGAGCGGCCTCGGCACCGGGATTCTGAT
DNA 2: ATCAGAATCCCGGTGCCGAGGCCGCTCAATTGGTCGTAGACAGCTCTAGCACCGCTTAAACGCACGTACGCGCTGTCCCCCGCGTTTTAACCGCCAAGGGGATTACTCCCTAGTCTCCAGGCACGTGTCAGATATATACATCGAT
For B1, the binding result with AtLFYΔ40 (LEAFY) [1] was “binds”.

B2: C2 free DNA (dsDNA)
DNA 1: ATCGATGTATATATCTGACACGTGCCTGGAGACTAGGGAGTAATCCCCTTGGCGGTTAAAACGCATTGACCAGCGGGTAATTGCGTTTAAGCGGTGCTAGAGCTGTCTACGACCAATTGAGCGGCCTCGGCACCGGGATTCTGAT
DNA 2: ATCAGAATCCCGGTGCCGAGGCCGCTCAATTGGTCGTAGACAGCTCTAGCACCGCTTAAACGCAATTACCCGCTGGTCAATGCGTTTTAACCGCCAAGGGGATTACTCCCTAGTCTCCAGGCACGTGTCAGATATATACATCGAT
In the case of B2, in the data set with AtLFYΔ40 (LEAFY) [2], the binding result was “binds”.
